According to the Immune Epitope Database (IEDB):

What was measured:
[1] = biological target: HLA-A*02:01; test: IEDB peptide-MHC binding, purified MHC/competitive/radioactivity; filed as Kd, often an IC50 or EC50 that approximates it; ≥ and ≤ were set here for values at or beyond the usual limits of such assays
[2] = biological target: HLA-A*02:02; test: as above
[3] = biological target: HLA-A*02:03; test: as above
[4] = biological target: HLA-A*02:06; test: as above
[5] = biological target: HLA-A*68:02; test: as above
[6] = biological target: HLA-A*03:01; test: as above; conditions: source organism: Vaccinia virus WR
[7] = biological target: HLA-A*11:01; test: as above; conditions: source organism: Vaccinia virus WR
[8] = biological target: HLA-A*31:01; test: as above; conditions: source organism: Vaccinia virus WR
[9] = biological target: HLA-A*33:01; test: as above; conditions: source organism: Vaccinia virus WR
[10] = biological target: HLA-A*68:01; test: as above; conditions: source organism: Vaccinia virus WR
[11] = biological target: HLA-B*07:02; test: as above; conditions: source organism: Vaccinia virus WR
[12] = biological target: HLA-B*35:01; test: as above; conditions: source organism: Vaccinia virus WR
[13] = biological target: HLA-B*51:01; test: as above
[14] = biological target: HLA-B*53:01; test: as above; conditions: source organism: Vaccinia virus WR
[15] = biological target: HLA-B*54:01; test: as above; conditions: source organism: Vaccinia virus WR
[16] = biological target: HLA-A*26:01; test: as above
[17] = biological target: HLA-A*01:01; test: as above
[18] = biological target: HLA-A*29:02; test: as above
[19] = biological target: HLA-A*30:01; test: as above
[20] = biological target: HLA-A*30:02; test: as above
[21] = biological target: HLA-A*32:01; test: as above
[22] = biological target: HLA-A*23:01; test: as above
[23] = biological target: HLA-A*24:02; test: as above
[24] = biological target: HLA-A*02:01; test: IEDB peptide-MHC binding, purified MHC/direct/fluorescence; filed as Kd, often an IC50 or EC50 that approximates it; ≥ and ≤ were set here for values at or beyond the usual limits of such assays; conditions: source organism: Juquitiba virus
[25] = biological target: HLA-A*03:01; test: as above; conditions: source organism: Araucaria virus
[26] = biological target: HLA-A*26:01; test: IEDB peptide-MHC binding, purified MHC/competitive/fluorescence; filed as Kd, often an IC50 or EC50 that approximates it; ≥ and ≤ were set here for values at or beyond the usual limits of such assays; conditions: source organism: Hantavirus HPR/02-73
[27] = biological target: HLA-B*18:01; test: as above; conditions: source organism: Hantavirus HPR/02-73
[28] = biological target: HLA-B*27:03; test: as above; conditions: source organism: Hantavirus HPR/02-73
[29] = biological target: HLA-B*51:01; test: as above; conditions: source organism: Hantavirus HPR/02-73
[30] = biological target: HLA-B*57:01; test: as above; conditions: source organism: Hantavirus HPR/02-73
[31] = biological target: HLA-B*18:01; test: IEDB peptide-MHC binding, purified MHC/direct/fluorescence; filed as Kd, often an IC50 or EC50 that approximates it; ≥ and ≤ were set here for values at or beyond the usual limits of such assays
[32] = biological target: HLA-B*44:03; test: IEDB peptide-MHC binding, purified MHC/competitive/radioactivity; filed as Kd, often an IC50 or EC50 that approximates it; ≥ and ≤ were set here for values at or beyond the usual limits of such assays; conditions: source organism: Dengue virus 1 Brazil/97-11/1997
[33] = source organism: Trypanosoma cruzi
[34] = source organism: Vaccinia virus WR
[35] = source organism: Dengue virus 4 Philippines/H241/1956
[36] = source organism: Mammarenavirus brazilense
[37] = source organism: Lassa virus Josiah
[38] = source organism: Mammarenavirus juninense
[39] = source organism: Mammarenavirus whitewaterense
[40] = source organism: Dengue virus 2 Jamaica/1409/1983
[41] = source organism: Dengue virus 1 Brazil/97-11/1997
[42] = source organism: Dengue virus 1 Singapore/S275/1990
[43] = source organism: Human immunodeficiency virus type 1 (SF33 ISOLATE)

Sequence: LLGMWGIAAI
- Kd [1, 33]: 14.3 nM
- Kd [2, 33]: 24.3 nM
- Kd [3, 33]: 3.16 nM
- Kd [4, 33]: 9.58 nM
- Kd [5, 33]: ≥ 42200 nM

Sequence: ATLMKTSCSK
- Kd [1, 34]: ≥ 69400 nM
- Kd [2, 34]: ≥ 70000 nM
- Kd [3, 34]: ≥ 70400 nM
- Kd [4, 34]: ≥ 69800 nM
- Kd [6]: 33.6 nM
- Kd [7]: 19.9 nM
- Kd [8]: 411 nM
- Kd [9]: ≥ 70000 nM
- Kd [10]: 4950 nM
- Kd [5, 34]: ≥ 69800 nM
- Kd [11]: ≥ 21600 nM
- Kd [12]: ≥ 69900 nM
- Kd [13, 34]: ≥ 69600 nM
- Kd [14]: ≥ 69900 nM
- Kd [15]: ≥ 69900 nM

Sequence: LTFIRSTMPL
- Kd [16, 35]: 7410 nM
- Kd [5, 35]: 19.8 nM
- Kd [13, 35]: 1520 nM

Sequence: DTGNYILCY
- Kd [17, 36]: 273 nM
- Kd [16, 36]: 5730 nM
- Kd [18, 36]: 1410 nM
- Kd [19, 36]: 2440 nM
- Kd [20, 36]: 18000 nM
- Kd [21, 36]: ≥ 24800 nM

Sequence: MWHVTRGSVI
- Kd [22, 35]: 1080 nM
- Kd [23, 35]: 1280 nM

Sequence: GLVGLVTFLL
- Kd [1, 37]: 49 nM
- Kd [2, 37]: 191 nM
- Kd [3, 37]: 122 nM
- Kd [4, 37]: 2060 nM
- Kd [5, 37]: 214 nM

Sequence: FANYNFTLV
- Kd [2, 33]: 22.6 nM
- Kd [3, 33]: ≥ 78100 nM
- Kd [4, 33]: 0.00585 nM
- Kd [5, 33]: 0.0102 nM

Sequence: LVGLLSNAAS
- Kd [1, 33]: 11200 nM
- Kd [2, 33]: 1720 nM
- Kd [3, 33]: 395 nM
- Kd [4, 33]: 1330 nM
- Kd [5, 33]: 4310 nM

Sequence: LSEMLNKEY
- Kd [17, 36]: 5.25 nM
- Kd [16, 36]: ≥ 77900 nM
- Kd [18, 36]: 5720 nM
- Kd [19, 36]: 9770 nM
- Kd [20, 36]: 14700 nM
- Kd [21, 36]: ≥ 77800 nM

Sequence: YILGFAIPI
- Kd [24]: 0.3 nM
- Kd [25]: ≥ 20000 nM
- Kd [26]: ≥ 20000 nM
- Kd [27]: ≥ 20000 nM
- Kd [28]: ≥ 20000 nM
- Kd [29]: ≥ 20000 nM
- Kd [30]: ≥ 20000 nM

Sequence: ILNAMITKI
- Kd ([1]; source organism: Homo sapiens): 95 nM

Sequence: KEVSGVKGF
- Kd ([31]; source organism: Yellow fever virus): 500 nM

Sequence: IAMGYVVSSF
- Kd [17, 38]: 5140 nM
- Kd [16, 38]: 530 nM
- Kd [18, 38]: 1490 nM
- Kd [19, 38]: 9100 nM
- Kd [20, 38]: 220 nM
- Kd [21, 38]: 996 nM

Sequence: PYMPTVIEEL
- Kd [23, 35]: 211 nM

Sequence: RLTQSHPIL
- Kd [1, 37]: 1670 nM

Sequence: ELINIPYCNY
- Kd [17, 39]: 15800 nM
- Kd [16, 39]: 227 nM
- Kd [18, 39]: 1810 nM
- Kd [19, 39]: ≥ 70400 nM
- Kd [20, 39]: 88.8 nM
- Kd [21, 39]: ≥ 28300 nM

Sequence: GWKNWQEVPF
- Kd [22, 35]: 430 nM
- Kd [23, 35]: 190 nM

Sequence: RPDTRHLRVL
- Kd [1, 34]: ≥ 69400 nM
- Kd [2, 34]: ≥ 70000 nM
- Kd [3, 34]: ≥ 70400 nM
- Kd [4, 34]: ≥ 69800 nM
- Kd [6]: ≥ 70100 nM
- Kd [7]: ≥ 69800 nM
- Kd [8]: ≥ 70000 nM
- Kd [9]: ≥ 70000 nM
- Kd [10]: ≥ 70200 nM
- Kd [5, 34]: ≥ 69800 nM
- Kd [11]: 11.7 nM
- Kd [12]: ≥ 69900 nM
- Kd [13, 34]: ≥ 69600 nM
- Kd [14]: ≥ 69900 nM
- Kd [15]: ≥ 69900 nM

Sequence: YLLPSRGPKL
- Kd ([1]; source organism: Hepatitis C virus subtype 2b): 646 nM

Sequence: MTTEDMLAV
- Kd [17, 40]: 2700 nM
- Kd [4, 40]: 7.01 nM
- Kd [16, 40]: 623 nM
- Kd [5, 40]: 10.8 nM

Sequence: LLQYWSQEL
- Kd ([1]; source organism: HIV-1 M:B_MN): 189 nM

Sequence: SFIEVKTCIW
- Kd [22, 41]: 17.3 nM
- Kd [32]: 1260 nM

Sequence: LVGLVTFLL
- Kd [1, 37]: 641 nM

Sequence: GARVIWMDAY
- Kd [6]: 1020 nM
- Kd [7]: 5510 nM
- Kd [18, 34]: ≥ 55600 nM
- Kd [8]: 220 nM
- Kd [9]: 505 nM
- Kd [10]: 978 nM

Sequence: TYGLNTFTNM
- Kd [22, 40]: 4920 nM

Sequence: FPFGDVWNY
- Kd ([31]; source organism: Listeria innocua): 1.4 nM

Sequence: SFIEVKSCHW
- Kd [22, 40]: 461 nM

Sequence: VTLITGNMSF
- Kd [23, 40]: 11500 nM

Sequence: GLYNFATCGL
- Kd [2, 37]: 5.12 nM
- Kd [3, 37]: 2.27 nM
- Kd [4, 37]: 218 nM
- Kd [5, 37]: ≥ 5000 nM

Sequence: EVDSFSLGLL
- Kd [16, 42]: 1930 nM
- Kd [5, 42]: 146 nM

Sequence: AYAQMWSLM
- Kd ([23]; source organism: Dengue virus 3 Martinique/1243/1999): 12.1 nM

Sequence: CWCNATDTW
- Kd [22, 41]: 711 nM

Sequence: ALIRILQQL
- Kd [1, 43]: 28.1 nM
- Kd [2, 43]: 3.31 nM
- Kd [3, 43]: 2.99 nM
- Kd [4, 43]: 8.2 nM
- Kd [5, 43]: ≥ 65300 nM

Sequence: IMTSYQYLII
- Kd [1, 37]: 1000 nM

Sequence: YLSTERDHV
- Kd ([1]; source organism: Variola virus): 100 nM

Sequence: QYVYMGQPL
- Kd [23, 41]: 4520 nM

Sequence: LLFASMGFK
- Kd [1, 34]: 4830 nM
- Kd [2, 34]: 294 nM
- Kd [3, 34]: 183 nM
- Kd [4, 34]: 16700 nM
- Kd [6]: 0.874 nM
- Kd [7]: 1.71 nM
- Kd [8]: 55.6 nM
- Kd [9]: 2940 nM
- Kd [10]: 12.6 nM
- Kd [5, 34]: ≥ 36300 nM
- Kd [11]: ≥ 77500 nM
- Kd [12]: ≥ 41600 nM
- Kd [13, 34]: ≥ 77500 nM
- Kd [14]: ≥ 78200 nM
- Kd [15]: ≥ 78100 nM

Sequence: VTNLISETLK
- Kd [1, 34]: ≥ 69400 nM
- Kd [2, 34]: ≥ 70000 nM
- Kd [3, 34]: ≥ 70400 nM
- Kd [4, 34]: 17300 nM
- Kd [6]: 409 nM
- Kd [7]: 8.47 nM
- Kd [8]: 3270 nM
- Kd [9]: ≥ 34200 nM
- Kd [10]: 94.4 nM
- Kd [5, 34]: ≥ 34900 nM
- Kd [11]: ≥ 69600 nM
- Kd [12]: ≥ 69900 nM
- Kd [13, 34]: ≥ 69600 nM
- Kd [14]: ≥ 69900 nM
- Kd [15]: ≥ 69900 nM
